We go through 16 substances from patent US6555522B1, “Peptides and other small molecules derived from regions of interacting proteins and uses thereof” (Mount Sinai School of Medicine of the City of New York, priority 1998, dated 2003).

For assay [1], the target named is T1, phospholipase C-β2 (PLC-β2) (Homo sapiens, UniProt Q00722).
T1 construct: made in house; host or cells: High 5 insect cells (baculovirus); cytosolic fraction used, not purified
The experiment in a line: PLC assay, [3H]PIP2 hydrolysis by recombinant PLC-β2. The assay is classed as biochemical. Conditions: for affinity of PLC-β2 stimulation compared with parent or comparator peptide (in words) / maximal stimulation / efficacy on PLC-β2 (in words): concentration-effect curves; for effect on Gβγ stimulation of PLC-β2 (in words): Gβγ 100 nM; for stimulation of PLC-β2 activity by peptide itself (in words): basal, no Gβγ unless stated, short peptides at 100 μM. The method, then:
Recombinant PLC-β2 was expressed in High 5 cells by infection with recombinant baculovirus. Three to four days after infection, the cells were lysed by par bombing to 600 psi. The lysate was then centrifuged, and the cytosolic fraction was collected. Approximately 10-15 μg of cytosolic fraction was used per 100 μl reaction volume. Phospholipid substrate is a mixture of [3H]PIP2 and unlabeled phospholipids. Unlabeled phospholipids, from Sigma (P-6023), are crude phospholipids from bovine brain. The total diphosphoinositide and triphosphoinositide content is 20-40%. The remainder is a mixture of phosphotidylinositol and phosphotidylserine. Phospholipids are sonicated in 10 mM Hepes pH 7.0 to form micelles. A total of 0.01 μCi of [3H]PIP2, corresponding to approximately 7000 cpm, and 5 μg of unlabeled mixed phospholipids are used per reaction.
The PLC assay was performed as previously described (De Vivo, 1994, Meth. Enzymol. 238, 131). Briefly, substrate, PLC-β2, peptide, and Gβγ subunits are mixed on ice in a 100 μl volume buffer containing 10 mM Hepes pH 7.0, 1 mM DTT, 100 mM KCl, 10 mM NaCl, 2 mM EGTA, 1 mM EDTA, and 1 mM MgCl2. Reactions are started by the addition of 25 μl 5 mM CaCl2 and incubated at 32 degrees C. for 15 minutes. Reactions are stopped by the addition of 1 ml CMH (chloroform:methanol:H2O=100:100:1 by volume) and 250 μl 10 mM EDTA. After extraction, 400 μl aqueous phase is counted using a Beckman scintillation counter. All experiments were repeated at least thrice with very similar results. For concentration-effect curves, typical experiments are shown.

In another assay the target is T2, adenylyl cyclase 2 (AC2) (Rattus norvegicus, UniProt P26769).
T2 construct: made in house; host or cells: Sf9 cells (baculovirus); membranes used
The experiment in a line: Adenylyl cyclase assay, recombinant AC2 in Sf9 cell membranes. The assay is classed as biochemical. To be noted: αs* 2 nM plus Gβγ 50 nM; TTN at 100 μM. The source says: (§1) Expression of G-Protein Subunits And Adenylyl Cyclases. Gβγ was purified from bovine brain (Dingus et al., 1994, Meth. Enzymol. 237, 457-471). Q227L-Gαs was expressed in rabbit reticulocyte lysates. AC2 was expressed in Sf9 cells by infection with recombinant baculovirus (Jacobowitz and Iyengar, 1994, Proc. Natl. Acad. Sci. U.S.A. 91, 10630-10634). AC2 assays have been described (Chen et al., 1995, Science 268, 1166-1169). Bovine AC1 (Jacobowitz et al., 1993, J. Biol. Chem. 268, 3829-3832) was epitope tagged at the N terminus with the FLAG epitope (Jacobowitz and Iyengar, 1994, Proc. Natl. Acad. Sci. U.S.A. 91, 10630-10634) and expressed in Sf9 cells by baculovirus infection.
Adenylyl Cyclase Assays. AC2 assays have been described (Chen et al., 1995, Science 268, 1166-1169). When required the peptides were mixed with adenylyl cyclase containing membranes and held on ice for 10 min prior to assays. Approximately 1-4 μg of AC2 Sf9 cell membranes per assay tube was used. All assays contained a mixture of protease inhibitors. The final concentration of each inhibitor was leupeptin at 3.2 μg/ml, aprotinin at 2 μg/ml, phenanthroline at 1.0 mM, and phenylmethylsulfonyl fluoride at 1.0 mM. To study Gβγ inhibition, AC1-containing Sf9 cell membranes (1-4 μg per assay tube) was used. […]

The target of the next assay is T3, adenylyl cyclase 1 (AC1) (Bos taurus, UniProt P19754).
T3 construct: made in house; host or cells: Sf9 cells (baculovirus); membranes used
The experiment in a line: Adenylyl cyclase assay, recombinant AC1 in Sf9 cell membranes. The format is biochemical, bovine. Conditions: for inhibition of Ca2+/CaM-stimulated AC1 activity by peptide alone (in words): CaM 100 nM; for blockade of Gβγ inhibition of Ca2+/CaM-stimulated AC1: CaM 100 nM plus Gβγ 30 nM.
Description: as §1
Adenylyl Cyclase Assays. AC2 assays have been described (Chen et al., 1995, Science 268, 1166-1169). When required the peptides were mixed with adenylyl cyclase containing membranes and held on ice for 10 min prior to assays. Approximately 1-4 μg of AC2 Sf9 cell membranes per assay tube was used. All assays contained a mixture of protease inhibitors. The final concentration of each inhibitor was leupeptin at 3.2 μg/ml, aprotinin at 2 μg/ml, phenanthroline at 1.0 mM, and phenylmethylsulfonyl fluoride at 1.0 mM. To study Gβγ inhibition, AC1-containing Sf9 cell membranes (1-4 μg per assay tube) was used. In these assays, in addition to the other standard reagents, the assay mixture contained either 1 mM EGTA or 50 μM CaCl2 plus 100 nM calmodulin (CaM). All experiments were repeated two or more times with qualitatively similar results. Typical experiments are shown. Values are mean±SD of triplicate determinations.

Another assay addresses T4, PLC-β2 (Homo sapiens, UniProt Q00722).
T4 construct: made in house; host or cells: Sf9 cells; purified as in Runnel et al. 1996
Description: Fluorescent resonance energy transfer binding of DABMI-labeled peptide to Cascade Blue-labeled PLC-β2. To be noted: FRET. The method, then:
For fluorescent resonance energy transfer experiments, recombinant PLC-β2 was expressed in Sf9 cells and purified as described (Runnel et al., 1996, Biochem. 35, 16824) and labeled with the amine-reactive probe, Cascade Blue acetyl azide (Molecular Probes, Eugene Oreg.) by raising the pH to 8.0 and adding a 4-fold excess of probe from a freshly prepared concentrated DMF solution. The reaction was kept on ice for 30 minutes before extensive dialysis in a solution comprising 20 mM Hepes, 0.16 M NaCl, 1 mM DTT, pH 7.2 to remove excess probe. Peptides were labeled with DABMI (4-dimethyl-5aminophenylazophenyl-4′-maleimeide) using an equimolar amount of dye in the absence of reducing agents. The reaction was allowed to proceed for 30 minutes at room temperature before quenching with 5 mM DTT. The final labeling ratios, as determined by absorption, were 1:1 for CB-PLC-β2 and 0.8 for the two DABMI-peptides. Fluorescence spectra were taken on an ISS-PCL (ISS Champaign, Ill.) photon counting spectrofluorometer using a 3×3 mm cuvette and exciting at 380 nm and scanning from 400-560 nm.

“Also recorded” adds a separate entry of the source. Ends that are not written are not given here.

T1 sequence (Q00722 whole entry): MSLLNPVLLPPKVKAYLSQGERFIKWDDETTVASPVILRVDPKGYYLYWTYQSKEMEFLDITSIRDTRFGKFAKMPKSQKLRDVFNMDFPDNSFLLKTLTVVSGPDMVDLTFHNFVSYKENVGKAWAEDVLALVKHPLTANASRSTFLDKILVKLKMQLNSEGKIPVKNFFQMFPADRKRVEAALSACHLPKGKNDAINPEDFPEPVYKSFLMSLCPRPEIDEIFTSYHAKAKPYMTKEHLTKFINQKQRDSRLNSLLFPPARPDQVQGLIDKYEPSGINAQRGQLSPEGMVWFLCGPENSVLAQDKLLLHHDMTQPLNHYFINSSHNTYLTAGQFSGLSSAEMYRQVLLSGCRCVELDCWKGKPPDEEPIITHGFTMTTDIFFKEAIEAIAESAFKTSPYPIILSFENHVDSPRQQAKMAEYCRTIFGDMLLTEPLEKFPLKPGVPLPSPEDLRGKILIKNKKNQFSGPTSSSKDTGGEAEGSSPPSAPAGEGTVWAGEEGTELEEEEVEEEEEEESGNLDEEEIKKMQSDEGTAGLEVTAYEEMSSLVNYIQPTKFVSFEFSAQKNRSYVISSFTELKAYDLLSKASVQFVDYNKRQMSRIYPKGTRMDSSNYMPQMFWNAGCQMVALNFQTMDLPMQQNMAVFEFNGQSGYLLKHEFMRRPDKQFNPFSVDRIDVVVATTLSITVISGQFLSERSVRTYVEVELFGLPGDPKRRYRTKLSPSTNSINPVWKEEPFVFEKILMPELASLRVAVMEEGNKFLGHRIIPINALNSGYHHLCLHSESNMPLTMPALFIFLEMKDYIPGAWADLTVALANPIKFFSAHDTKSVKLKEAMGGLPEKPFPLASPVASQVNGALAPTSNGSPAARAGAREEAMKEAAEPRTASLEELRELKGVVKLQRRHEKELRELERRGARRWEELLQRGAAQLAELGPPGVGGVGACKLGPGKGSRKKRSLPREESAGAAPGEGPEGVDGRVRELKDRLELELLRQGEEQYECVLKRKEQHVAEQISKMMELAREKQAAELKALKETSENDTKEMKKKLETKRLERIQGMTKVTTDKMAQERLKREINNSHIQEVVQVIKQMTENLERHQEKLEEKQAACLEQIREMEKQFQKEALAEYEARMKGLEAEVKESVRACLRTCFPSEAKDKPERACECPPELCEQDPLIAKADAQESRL
T3 sequence (P19754 whole entry): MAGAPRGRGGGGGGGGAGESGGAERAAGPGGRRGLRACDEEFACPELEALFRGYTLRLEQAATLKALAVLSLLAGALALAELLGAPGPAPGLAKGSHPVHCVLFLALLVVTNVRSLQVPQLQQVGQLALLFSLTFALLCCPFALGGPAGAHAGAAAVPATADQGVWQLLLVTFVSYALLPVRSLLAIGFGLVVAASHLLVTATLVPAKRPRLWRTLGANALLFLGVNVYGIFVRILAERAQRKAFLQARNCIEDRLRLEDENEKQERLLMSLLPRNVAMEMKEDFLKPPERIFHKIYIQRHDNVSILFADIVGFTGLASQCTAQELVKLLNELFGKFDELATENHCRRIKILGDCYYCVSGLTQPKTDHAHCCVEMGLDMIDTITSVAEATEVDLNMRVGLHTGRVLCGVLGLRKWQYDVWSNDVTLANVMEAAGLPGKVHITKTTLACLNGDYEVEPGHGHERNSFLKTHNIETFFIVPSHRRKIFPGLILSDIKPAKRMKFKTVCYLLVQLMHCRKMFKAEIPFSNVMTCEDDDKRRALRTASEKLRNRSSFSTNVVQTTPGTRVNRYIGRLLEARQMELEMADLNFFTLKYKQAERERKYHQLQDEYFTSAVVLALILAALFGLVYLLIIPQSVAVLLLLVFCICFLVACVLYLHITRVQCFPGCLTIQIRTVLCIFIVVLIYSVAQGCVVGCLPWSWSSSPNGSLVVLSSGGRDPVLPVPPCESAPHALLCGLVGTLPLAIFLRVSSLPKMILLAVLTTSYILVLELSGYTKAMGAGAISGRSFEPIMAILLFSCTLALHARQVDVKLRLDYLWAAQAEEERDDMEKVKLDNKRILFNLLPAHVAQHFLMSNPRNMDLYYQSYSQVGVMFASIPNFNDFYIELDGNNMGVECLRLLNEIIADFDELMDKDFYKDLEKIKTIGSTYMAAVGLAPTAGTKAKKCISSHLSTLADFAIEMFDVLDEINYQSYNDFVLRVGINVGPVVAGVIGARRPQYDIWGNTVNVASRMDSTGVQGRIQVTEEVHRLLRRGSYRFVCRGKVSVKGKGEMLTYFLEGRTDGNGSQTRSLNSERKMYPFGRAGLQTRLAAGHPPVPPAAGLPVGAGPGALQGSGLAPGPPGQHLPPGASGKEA
T2 sequence (P26769 whole entry): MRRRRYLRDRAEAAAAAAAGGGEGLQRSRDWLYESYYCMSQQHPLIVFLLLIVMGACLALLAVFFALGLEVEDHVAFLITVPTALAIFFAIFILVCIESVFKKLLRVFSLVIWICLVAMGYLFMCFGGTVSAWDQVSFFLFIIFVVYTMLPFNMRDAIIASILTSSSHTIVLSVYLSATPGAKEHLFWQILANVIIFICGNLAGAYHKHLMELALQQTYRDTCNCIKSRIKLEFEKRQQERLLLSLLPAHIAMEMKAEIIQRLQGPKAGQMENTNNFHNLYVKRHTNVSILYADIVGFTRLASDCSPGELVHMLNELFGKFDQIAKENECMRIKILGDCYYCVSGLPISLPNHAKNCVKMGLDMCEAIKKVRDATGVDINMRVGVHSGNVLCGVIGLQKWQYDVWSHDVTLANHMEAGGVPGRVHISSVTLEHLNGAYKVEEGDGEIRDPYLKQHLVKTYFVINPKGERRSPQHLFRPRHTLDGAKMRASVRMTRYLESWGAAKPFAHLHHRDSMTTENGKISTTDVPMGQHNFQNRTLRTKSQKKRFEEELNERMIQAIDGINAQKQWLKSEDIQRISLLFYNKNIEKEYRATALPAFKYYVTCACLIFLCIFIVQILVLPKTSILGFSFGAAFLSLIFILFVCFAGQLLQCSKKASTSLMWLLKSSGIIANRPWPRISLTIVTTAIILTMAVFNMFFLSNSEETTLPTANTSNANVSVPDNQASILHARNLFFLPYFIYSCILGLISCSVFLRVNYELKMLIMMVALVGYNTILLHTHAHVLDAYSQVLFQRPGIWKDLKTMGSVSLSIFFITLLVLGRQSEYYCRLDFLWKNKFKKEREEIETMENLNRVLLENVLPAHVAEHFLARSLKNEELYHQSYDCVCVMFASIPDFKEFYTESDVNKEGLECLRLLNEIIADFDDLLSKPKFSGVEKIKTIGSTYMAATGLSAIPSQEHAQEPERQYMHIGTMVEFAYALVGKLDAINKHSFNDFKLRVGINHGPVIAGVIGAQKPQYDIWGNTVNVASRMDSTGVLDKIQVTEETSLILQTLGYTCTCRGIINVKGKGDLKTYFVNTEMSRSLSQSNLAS
T4 sequence (Q00722 whole entry): as the sequence (Q00722 whole entry) above

With “S98R Gβ96-101: six amino acid Gβ96-101 peptide with arginine substituted at position 98 (RSRWVM; UniProt P62873 96-101, looked up, variant S98R)”, the “affinity of PLC-β2 stimulation compared with parent or comparator peptide (in words)” value in assay [1] is recorded as “increase affinity”. Take “S97, 98C: Gβ86-105 peptide with serines 97 and 98 substituted with cysteine (TTNKVHAIPLRCCWVMTCAY)”: the “affinity of PLC-β2 stimulation compared with parent or comparator peptide (in words)” value in assay [1] is listed as “greatly reduced affinity”. With “m-GGL: Gβ115-135 peptide with Tyr-124 converted to Val (GGLDNICSIVNLKTREGNVRV)”, in the assay with adenylyl cyclase 2 (AC2), the “inhibition of Gβγ-stimulated AC2 activity” value is on record as “less effective”. Moreover, the “effect on Gβγ stimulation of PLC-β2 (in words)” value in assay [1] was “inactive”. Moreover, in the assay with adenylyl cyclase 1 (AC1), the “inhibition of Ca2+/CaM-stimulated AC1 activity by peptide alone (in words)” value is reported as “did not inhibit the AC1 activity as extensively” and the “blockade of Gβγ inhibition of Ca2+/CaM-stimulated AC1” value is given as “no effect”. For the substance “S97,98R Gβ86-105 peptide: Gβ86-105 peptide with both serines 97 and 98 substituted with arginine (TTNKVHAIPLRRRWVMTCAY)”, the “increase in affinity of PLC-β2 stimulation versus Gβ86-105 peptide” value in assay [1] (substituted Gβ86-105 peptides) is “five-fold increase”. Regarding “FLLT: unrelated peptide encoding region 660-688 of adenylyl cyclase 6, same overall charge as Gβ86-105 (KYSRKVDPRFGAYVACALLVFCFICFIQL; UniProt O43306 660-688, looked up, fragment) [reference compound]”, in assay [1], the “stimulation of PLC-β2 activity by peptide itself (in words)” value (“stimulation of PLC-β2 activity” below) is listed as “no measurable effects”. As to “R96A: Gβ86-105 peptide with R96A substitution (TTNKVHAIPLASSWVMTCAY)”, in assay [1], the “affinity of PLC-β2 stimulation compared with parent or comparator peptide (in words)” value is recorded as “decreased the affinity; also recorded: large shift in affinity” and the “maximal stimulation / efficacy on PLC-β2 (in words)” value (from here on “maximal stimulation / efficacy”) is on record as “did not affect maximal stimulation”. Turning to “H91A: Gβ86-105 peptide with H91A substitution (TTNKVAAIPLRSSWVMTCAY)”, in assay [1], the “affinity of PLC-β2 stimulation compared with parent or comparator peptide (in words)” value is on record as “decreased the affinity” and the “maximal stimulation / efficacy” value is on record as “did not affect maximal stimulation”. On to “Gβ89-101: thirteen amino acid peptide encoding Gβ residues 89-101 (SEQ ID NO:7) (KVHAIPLRSSWVM; listed as Homo sapiens)”, for which the “stimulation of PLC-β2 activity” value in assay [1] is listed as “did stimulate”. Turning to “Gβ96-101: six amino acid peptide encoding Gβ residues 96-101 (SEQ ID NO:8) (RSSWVM; listed as Homo sapiens)”, in assay [1], the “stimulation of PLC-β2 activity” value is listed as “did stimulate” and the “affinity of PLC-β2 stimulation compared with parent or comparator peptide (in words)” value is on record as “considerably lower affinity”. “Gβ96-98: three amino acid peptide encoding Gβ residues 96-98 (RSS)”: in assay [1], the “stimulation of PLC-β2 activity” value is on record as “did not stimulate”. As to “S97R substituted peptide: six amino acid Gβ96-101 peptide with arginine at position 97 (SEQ ID NO:10) (RRSWVM; listed as Homo sapiens)”, the “affinity of PLC-β2 stimulation compared with parent or comparator peptide (in words)” value in assay [1] is “increase affinity; also recorded: higher affinity”.

With “m-TTN: Gβ86-105 peptide with Met-101 substituted by Asn (TTNKVHAIPLRSSWVNTCAY)”, the “inhibition of Gβγ-stimulated AC2 activity” value in the assay with adenylyl cyclase 2 (AC2) is recorded as “much less efficacious”. The “stimulation of PLC-β2 activity” value in assay [1] was “not capable of activating”. Also, in the assay with adenylyl cyclase 1 (AC1), the “inhibition of Ca2+/CaM-stimulated AC1 activity by peptide alone (in words)” value was “greatly reduced capacity to inhibit” and the “blockade of Gβγ inhibition of Ca2+/CaM-stimulated AC1” value is “did not affect”. Besides, the “binding to PLC-β2 (in words)” value in the assay with PLC-β2 is recorded as “did not display measurable binding”. “S97, 98D Gβ96-101: six amino acid Gβ96-101 peptide with serines 97 and 98 substituted with Asp (RDDWVM)”: the “stimulation of PLC-β2 activity” value in assay [1] is “did not stimulate”. For the substance “K89A: Gβ86-105 peptide with K89A substitution (TTNAVHAIPLRSSWVMTCAY)”, in assay [1], the “affinity of PLC-β2 stimulation compared with parent or comparator peptide (in words)” value is on record as “decreased the affinity” and the “maximal stimulation / efficacy” value is given as “did not affect maximal stimulation”. On to “K89A, H91A, and R96A triple substituted peptide: Gβ86-105 peptide with K89, H91 and R96 substituted simultaneously (TTNAVAAIPLASSWVMTCAY; UniProt P62873 86-105, looked up, variant K89A H91A R96A)”, for which, in assay [1], the “effect on Gβγ stimulation of PLC-β2 (in words)” value is given as “did not affect” and the “stimulation of PLC-β2 activity” value is given as “did not stimulate”. Regarding “S97, 98D: Gβ86-105 peptide with serines 97 and 98 substituted (D per FIG. 7C legend; text says asparagine) (TTNKVHAIPLRDDWVMTCAY; not fully specified)”, in assay [1], the “stimulation of PLC-β2 activity” value was “inactive”.
